Test results: publication PMC10350107

Key:
[1] = molecular target: human MCM8–9 complex, wild type (FLAG-MCM8 with MBP-MCM9, co-expressed) (human) (UniProt Q9UJA3)
[2] = test system: MCM8 (FLAG-MCM8);MCM9 (MBP-MCM9) (human;human); experiment: EMSA; details: EMSA: 25 mM Tris acetate pH 7.5, 3 mM EDTA (or 4 mM ATP + 1 mM Mg acetate), 1 mM DTT, 0.1 mg/ml BSA, 1 nM DNA (100 ng for plasmid-length DNA), 15 min on ice …

Chain of human MCM8–9 complex, wild type (FLAG-MCM8 with MBP-MCM9, co-expressed) (human) (Q9UJA3 whole entry, chain 1 of 2): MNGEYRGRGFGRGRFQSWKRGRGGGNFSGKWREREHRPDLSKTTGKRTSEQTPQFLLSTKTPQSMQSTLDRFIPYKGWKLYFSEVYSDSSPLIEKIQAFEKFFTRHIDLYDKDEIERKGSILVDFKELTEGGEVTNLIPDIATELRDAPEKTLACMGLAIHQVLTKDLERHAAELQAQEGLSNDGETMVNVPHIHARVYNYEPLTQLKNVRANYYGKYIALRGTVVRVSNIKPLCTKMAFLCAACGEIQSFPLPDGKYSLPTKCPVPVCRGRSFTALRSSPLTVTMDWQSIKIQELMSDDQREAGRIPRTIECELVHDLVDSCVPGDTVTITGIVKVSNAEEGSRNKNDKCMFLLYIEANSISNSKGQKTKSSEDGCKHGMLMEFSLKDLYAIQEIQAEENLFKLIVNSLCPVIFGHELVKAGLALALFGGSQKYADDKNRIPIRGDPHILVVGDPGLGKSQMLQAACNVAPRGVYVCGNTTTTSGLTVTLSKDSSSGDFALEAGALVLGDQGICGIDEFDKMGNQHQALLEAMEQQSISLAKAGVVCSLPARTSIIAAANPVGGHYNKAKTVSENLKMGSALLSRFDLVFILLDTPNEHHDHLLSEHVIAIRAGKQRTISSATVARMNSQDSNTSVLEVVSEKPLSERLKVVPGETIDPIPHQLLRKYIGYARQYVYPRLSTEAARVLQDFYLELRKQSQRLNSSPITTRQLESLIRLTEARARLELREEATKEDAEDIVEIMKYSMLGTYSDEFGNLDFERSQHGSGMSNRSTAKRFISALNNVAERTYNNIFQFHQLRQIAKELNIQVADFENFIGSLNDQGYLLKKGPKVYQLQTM
Chain of human MCM8–9 complex, wild type (FLAG-MCM8 with MBP-MCM9, co-expressed) (human) (Q9NXL9 whole entry, chain 2 of 2, further chain): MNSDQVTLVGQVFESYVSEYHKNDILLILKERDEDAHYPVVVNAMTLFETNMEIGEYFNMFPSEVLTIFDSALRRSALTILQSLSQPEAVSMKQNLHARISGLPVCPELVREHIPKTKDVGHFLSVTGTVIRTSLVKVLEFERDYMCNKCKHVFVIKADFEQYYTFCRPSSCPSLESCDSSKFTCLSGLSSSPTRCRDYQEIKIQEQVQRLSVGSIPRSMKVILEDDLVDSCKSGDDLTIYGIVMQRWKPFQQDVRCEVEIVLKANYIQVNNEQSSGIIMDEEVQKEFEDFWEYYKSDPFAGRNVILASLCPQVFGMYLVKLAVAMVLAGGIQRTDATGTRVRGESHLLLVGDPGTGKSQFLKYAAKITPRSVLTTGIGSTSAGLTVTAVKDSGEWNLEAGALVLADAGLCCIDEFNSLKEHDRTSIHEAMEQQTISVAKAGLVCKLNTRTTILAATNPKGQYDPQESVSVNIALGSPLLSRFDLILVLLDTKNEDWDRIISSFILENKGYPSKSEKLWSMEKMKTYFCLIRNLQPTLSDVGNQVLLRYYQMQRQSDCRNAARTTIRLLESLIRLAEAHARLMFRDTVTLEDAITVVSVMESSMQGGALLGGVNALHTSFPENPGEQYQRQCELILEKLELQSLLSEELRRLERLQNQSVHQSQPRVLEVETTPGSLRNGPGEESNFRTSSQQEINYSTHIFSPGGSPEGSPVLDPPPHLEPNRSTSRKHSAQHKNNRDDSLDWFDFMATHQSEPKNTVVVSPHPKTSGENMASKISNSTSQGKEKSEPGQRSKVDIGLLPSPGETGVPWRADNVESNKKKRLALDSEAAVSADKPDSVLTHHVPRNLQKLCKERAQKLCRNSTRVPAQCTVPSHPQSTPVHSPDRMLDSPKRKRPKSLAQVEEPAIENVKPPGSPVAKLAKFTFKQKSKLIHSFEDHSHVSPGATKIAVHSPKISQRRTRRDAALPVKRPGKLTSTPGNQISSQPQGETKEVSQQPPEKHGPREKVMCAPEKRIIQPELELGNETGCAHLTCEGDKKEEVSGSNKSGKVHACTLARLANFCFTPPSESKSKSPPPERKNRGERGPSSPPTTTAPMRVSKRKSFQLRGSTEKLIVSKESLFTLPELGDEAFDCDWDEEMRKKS

Substance	ATP hydrolysis by MCM8–9 (200 nM) without or with HROB, DNA as co-factor; stimulation 1.5 to 2-fold [1] [fold]	K half [2] [nM]
HROB-FLAG, wild type human HROB (homologous recombination factor with OB-fold) (from UniProt Q8N3J3-4 1-646) (natural protein)	1.5 to 2	
Holliday junction (PC1253/PC1254/PC1255/PC1256)		55
Y-structure (PC1254/PC1253)		55
